In patent publication US7109015B2, “Removal of N-terminal methionine from proteins by engineered methionine aminopeptidase” (Academia Sinica, priority 2004, dated 2006):
Values joined by “and” are separate entries in the source; they are usually repeats but may differ in a detail not shown here. Equal entries are not always repeated.

Test system: Met-tagged onconase
Assay: In vivo catalytic activity of MetAPs co-expressed with Met-tagged onconase in E. coli BL21(DE3); N-terminus by Edman degradation
Format: cell-based
Conditions: for Catalytic activity (%): percent of penultimate residue removed / Catalytic activity (%): removal of N-terminal Met: in vivo in E. coli
From the text: Residues Tyr168, Met206 and Gln233 in the putative substrate-binding site of E. coli MetAP were mutated by site-directed mutagenesis based on the crystal structure and amino acid sequence alignment of MetAPs (Ben-Bassat et al., 1987; Lowther et al., 1999; Walker et al., 1999). For the expression of secretory ribonucleases, the ribonuclease gene was cloned and expressed as described previously (Huang et al., 1998).
Most of the co-expressed target protein, e.g., onconase or RC-RNase L1, existed in insoluble cell lysate. They were denatured, renatured and purified as described previously (Liao et al., 2003). The purified ribonucleases were stored in 20 mM sodium phosphate, pH 7.0, for pyroglutamate formation at the N-terminus. Alternatively, the ribonuclease secreted into culture medium through pe1B system was concentrated and purified to electrophoretical homogeneity at a yield of 1˜5 mg per 1 liter of culture (Huang et al., 1998).

B1: MetAP-*TG (protein)
chain: AISIKTPEDIEKMRVAGRLAAEVLEMIEPYVKPGVSTGELDRICNDYIVNEQHAVSACLGYHGYPKSVCISINEVVCHGIPDDAKLLKDGDIVNIDVTVIKDGFHGDTSKMFIVGKPTIMGERLCRITQESLYLALRMVKPGINLREIGAAIQKFVEAEGFSVVREYCGHGIGRGFHEEPQVLHYDSRETNVVLKPGMTFTIEPTVNAGKKEIRTMKDGWTVKTKDRSLSAGYEHTIVVTDNGCEILTLRKDDTIPAIISHDE
- Lower efficiency of Met removal with MetAP and target on separate vectors (MQD-initiated onconase or GST, pET29b/pET22b versus same vector): 10–15 % less
- Catalytic activity (%): percent of penultimate residue removed (substrate MAA-Onc): 25%
- Catalytic activity (%): removal of N-terminal Met (substrate MAA-Onc): 100%
- Catalytic activity (%): removal of N-terminal Met (substrate MAD-Onc): 99% and 100%
- Catalytic activity (%): removal of N-terminal Met (substrate MAE-Onc): 96%
- Catalytic activity (%): removal of N-terminal Met (substrate MAF-Onc): 100%
- Catalytic activity (%): percent of penultimate residue removed (substrate MAG-Onc): 57%
- Catalytic activity (%): removal of N-terminal Met (substrate MAG-Onc): 80%
- Catalytic activity (%): removal of N-terminal Met (substrate MAK-Onc): 100%
- Catalytic activity (%): removal of N-terminal Met (substrate MAL-Onc): 100%
- Catalytic activity (%): removal of N-terminal Met (substrate MAM-Onc): 96%
- Catalytic activity (%): removal of N-terminal Met (substrate MAN-Onc): 100%
- Catalytic activity (%): percent of penultimate residue removed (substrate MAP-Onc): 38%
- Catalytic activity (%): removal of N-terminal Met (substrate MAP-Onc): 72%
- Catalytic activity (%): removal of N-terminal Met (substrate MAQ-Onc): 97%
- Catalytic activity (%): removal of N-terminal Met (substrate MAR-Onc): 94%
- Catalytic activity (%): removal of N-terminal Met (substrate MAV-Onc): 100%
- Catalytic activity (%): removal of N-terminal Met (substrate MDD-Onc): 68%
- Catalytic activity (%): removal of N-terminal Met (substrate MED-Onc): 33%
- Catalytic activity (%): removal of N-terminal Met (substrate MFA-Onc): 2%
- Catalytic activity (%): removal of N-terminal Met (substrate MFD-Onc): 5%
- Catalytic activity (%): removal of N-terminal Met (substrate MGD-Onc): 95%
- Catalytic activity (%): removal of N-terminal Met (substrate MHD-Onc): 92%
- Catalytic activity (%): removal of N-terminal Met (substrate MIA-Onc): 36%
- Catalytic activity (%): removal of N-terminal Met (substrate MID-Onc): 22%
- Catalytic activity (%): removal of N-terminal Met (substrate MKA-Onc): 2%
- Catalytic activity (%): removal of N-terminal Met (substrate MKD-Onc): 3%
- Catalytic activity (%): percent of penultimate residue removed (substrate MLA-Onc): 100(100) %
- Catalytic activity (%): removal of N-terminal Met (substrate MLA-Onc): 100(100) %
- Catalytic activity (%): removal of N-terminal Met (substrate MLD-Onc): 86% and 90%
- Catalytic activity (%): percent of penultimate residue removed (substrate MLG-Onc): 100(100) %
- Catalytic activity (%): removal of N-terminal Met (substrate MLG-Onc): 100(100) %
- Catalytic activity (%): percent of penultimate residue removed (substrate MLH-Onc): 36%
- Catalytic activity (%): removal of N-terminal Met (substrate MLH-Onc): 75%
- Catalytic activity (%): percent of penultimate residue removed (substrate MLL-Onc): 24%
- Catalytic activity (%): removal of N-terminal Met (substrate MLL-Onc): 88%
- Catalytic activity (%): removal of N-terminal Met (substrate MLM-Onc): 100%
- Catalytic activity (%): percent of penultimate residue removed (substrate MLN-Onc): 58%
- Catalytic activity (%): removal of N-terminal Met (substrate MLN-Onc): 92%
- Catalytic activity (%): removal of N-terminal Met (substrate MLP-Onc): 5%
- Catalytic activity (%): percent of penultimate residue removed (substrate MLS-Onc): 59%
- Catalytic activity (%): removal of N-terminal Met (substrate MLS-Onc): 82%
- Catalytic activity (%): removal of N-terminal Met (substrate MLT-Onc): 91%
- Catalytic activity (%): percent of penultimate residue removed (substrate MLV-Onc): 27%
- Catalytic activity (%): removal of N-terminal Met (substrate MLV-Onc): 76%
